Measured values from patent publication US8287851B2, “Use of interleukin 17E for the treatment of cancer” (Lorus Therapeutics Inc., priority 2005, dated 2012).

T1: murine IL-17E receptor (Mus musculus, UniProt Q9JIP3)
T1 construct: murine IL-17E receptor present on the pre-B cell line 70Z/3; endogenous in cells; host or cells: murine pre-B cell line 70Z/3
T1 sequence (Q9JIP3 18-499): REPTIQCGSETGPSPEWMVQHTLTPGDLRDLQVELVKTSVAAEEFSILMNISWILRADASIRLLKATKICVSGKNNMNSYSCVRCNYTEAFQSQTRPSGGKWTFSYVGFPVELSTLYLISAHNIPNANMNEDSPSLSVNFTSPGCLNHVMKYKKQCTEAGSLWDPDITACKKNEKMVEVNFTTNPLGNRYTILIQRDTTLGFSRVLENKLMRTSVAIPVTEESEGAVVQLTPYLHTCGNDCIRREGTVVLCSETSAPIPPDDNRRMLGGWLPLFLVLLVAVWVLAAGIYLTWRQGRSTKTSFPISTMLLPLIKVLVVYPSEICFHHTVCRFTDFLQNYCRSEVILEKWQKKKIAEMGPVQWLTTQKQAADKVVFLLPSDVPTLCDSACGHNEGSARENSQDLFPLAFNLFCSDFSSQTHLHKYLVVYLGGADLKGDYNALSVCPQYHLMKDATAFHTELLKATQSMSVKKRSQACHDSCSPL


Assays:
[1] = system: splenic B cells; experiment: Splenic B cell numbers and activation in C8161 tumour bearing mice (flow cytometry); assay type: in vivo, CD-1 nude mice; details: C8161-engrafted mice
Protocol: The increase in B cells was examined in BD-BRM-treated CD-1 nude mice. Briefly, the mice with human melanoma xenografts were treated for 4 weeks with either BD-BRM or PBS, as described in the preceding examples. Splenocytes were examined by flow cytometry for B cells using anti-IgM antibodies.
Antibodies fluorescein isothiocyanate (FITC)-anti-mouse IgM (eB121-15F9; IgG2a), phycoerythrin (PE) anti-mouse CD86 (GL1; IgG2a) and PE anti-mouse CD80 (16-10A1; hamster IgG) were purchased from eBioscience (San Diego, Calif.).
Flow cytometry was performed as described above. Briefly, splenocytes were isolated individually from CD1-nude C8161 tumour bearing mice treated 4 weeks with BD-BRM or PBS. Red blood cells were removed, followed by surface staining with (A) anti-IgM antibody-FITC or (B) anti-IgM-FITC and anti-CD80-PE+anti-CD86-PE by flow cytometry.
(§1) The effect of interleukin 17E on increased percentage of splenic eosinophils and B cells and the proportion of activated splenic B cells was examined. CD1-nude mice engrafted with C8161 human melanoma cells were treated with either PBS, murine IL-17E, or human IL-17E as described previously. At the endpoint of the experiment, spleens were isolated from treated mice, stained with markers specific for eosinophils (CCR3+), B cells (either IgM+ or CD19+), and B cell activation (CD-80+, CD86+), and examined by flow cytometry. Flow cytometry was performed as described in Example 4 above.
The percentage of eosinophils was determined by surface staining the granulocyte-gated population with phycoerythrin (PE)-conjugated anti-mouse CCR3. The percentage of B cells in the spleen was examined by surface staining with phycoerythrin (PE)-conjugated anti-mouse CD19. The proportion of activated splenic B cells was determined by staining with FITC-conjugated anti-mouse IgM together with PE-conjugated anti-mouse CD80 and PE-conjugated anti-mouse CD86. Statistical analysis was performed to compare eosinophil and B cell numbers/activation. P values <0.01 were considered to be significant.
In order to confirm that the effect of BD-BRM on splenic B cells as described in Example 5 is due to interleukin 17E activity, the effect of interleukin 17E on numbers and activation status of splenic B cells was examined. CD1-nude mice engrafted with C8161 human melanoma cells were treated with either PBS or murine IL-17E as described previously. At the endpoint of the experiment, spleens were isolated from treated mice, stained with markers specific for B cells (IgM+), and B cell activation (CD-80+, CD86+), and examined by flow cytometry. Flow cytometry was performed as described in Example 4 above.
Splenocytes were analyzed for the percentage of B cells by surface staining with FITC-conjugated anti-mouse IgM antibodies. Activated B cells were determined by surface staining with FITC-conjugated-anti-mouse IgM antibodies, and PE-conjugated-anti-mouse CD80 and PE-conjugated-anti-mouse CD86. Statistical analysis was performed to compare B cell numbers/activation. P values <0.01 were considered to be significant.

[2] = target: T1, murine IL-17E receptor; experiment: FACS binding to IL-17E receptor on pre-B cell line 70Z/3; details: 1 μg/10^6 cells, 30 minutes at 4° C.
Protocol: The ability of human and murine interleukin 17E to bind to the IL-17E receptor was examined using the murine pre-B cell line 70Z/3 (Paige, C. J., et al. (1981) Nature 292:631-3).
1×10^6 70Z/3 cells/sample were incubated with either murine or human IL-17E (1 μg/10^6 cells) for 30 minutes at 4° C. After washing twice, cells that had been incubated with murine IL-17E were incubated with biotin-conjugated goat anti-mouse IL17E and phycoerythrin (PE)-Cy5.5-conjugated streptavidin. Cells that had been incubated with human IL-17E were incubated with biotin-conjugated goat anti-human IL17E-biotin and phycoerythrin (PE)-Cy5.5-conjugated streptavidin. As negative controls, cells were stained with antibodies as described without preincubation with human or murine IL-17E. Samples were then fixed with 0.5% paraformaldehyde prior to FACS analysis.

[3] = system: eosinophils (CCR3+) in spleen; experiment: Eosinophils (CCR3+) in spleen of C8161 tumour xenografted mice; assay type: in vivo, CD-1 nude mice; details: C8161-engrafted mice, Example 21
Protocol: Briefly, single cell suspensions of spleen cells were obtained by meshing and passing through a cell strainer (70 um; Bectin Dickinson) to separate fibrous tissue. Erythrocytes were lysed with ACK (0.155 M ammonium chloride, 0.1 mM disodium EDTA, 0.01 M potassium bicarbonate, pH 7.3) for 5 minutes on ice. The single cell suspensions of spleen cells were then analyzed by flow cytometry for the presence of eosinophils by surface staining with an antibody to CCR3 using the method as described in Example 13.
as §1, with “Flow cytometry was performed as described in Example 4 above.” left out
The percentage of eosinophils was determined by surface staining the granulocyte-gated population with phycoerythrin (PE)-conjugated anti-mouse CCR3. […] The proportion of activated splenic B cells was determined by staining with FITC-conjugated anti-mouse IgM together with PE-conjugated anti-mouse CD80 and PE-conjugated anti-mouse CD86. […]

[4] = system: B cell linker protein BLNK; experiment: BLNK phosphorylation in B cell lymphoma cell line WEHI-231 (Western blot); assay type: cell-based; details: 0.21 μg per 1.5×10^6 WEHI-231 cells, 0, 2, 5 minutes
Description: The effect of IL-17E on activation of signaling pathways in B cells was examined using the B cell lymphoma cell line WEHI-231 (Lanier L. L., et al. (1981) J. Immunol. 126:626-31). Specifically, the activation status of the protein tyrosine kinase Lyn and the B cell linker protein BLNK (Tsubata, T., et al., (2001) Int Rev Immunol 20:675-8) were examined. An increased level of the phosphorylated forms of these proteins is indicative of activation.
A total of 1.5×10^6 cells per sample were stimulated in vitro with 0.21 μg of either human IL-17E or murine IL17E at 37° C. Cells were lysed at time points t=0, 2, and 5 minutes in lysis buffer for 30 minutes on ice, followed by centrifugation for 10 minutes. Samples containing approximately 25 μg of protein were separated by SDS-PAGE, followed by transfer to membranes for Western blotting.
For detection of phosphorylated BLNK, Western blots were incubated with rabbit anti-phospho-BLNK antibodies, followed by horseradish peroxidase (HRP)-conjugated anti-rabbit antibodies.
To assess equivalence in protein loading among lanes in both experiments, blots were stripped of antibodies and incubated with mouse anti-GAPDH antibodies and HRP-conjugated anti-mouse antibodies, followed by chemiluminescence-based detection.

Molecule	percentage of splenic B cells (CD19+) as compared to PBS ([1]; Example 21)	proportion of activated B cells (IgM, CD80, CD86) in the spleen as compared to PBS ([1]; Example 21)	binding to murine IL-17E receptor on 70Z/3 cells (FACS) [2]	percentage of splenic eosinophils (CCR3+, granulocyte-gated) as compared to PBS [3]	levels of phosphorylated BLNK protein [4]	percentage of splenic B cells (IgM+) as compared to PBS ([1]; Example 22)	proportion of activated B cells (IgM, CD80, CD86) in the spleen as compared to PBS ([1]; Example 22)
human IL-17E: Recombinant human IL-17E from PeproTech; two 145 amino acid chains, predominant form starting at Tyr 33 of GenBank AAG40848 (protein, listed as Homo sapiens) YSHWPSCCPSKGQDTSEELLRWSTVPVPPLEPARPNRHPESCRASEDGPLNSRAISPWRYELDRDLNRLPQDLYHARCLCPHCVSLQTGSHMDPRGNSELLYHNQTVFYRRPCHGEKGTHKGYCLERRLYRVSLACVCVRPRVMG	significantly increased	significantly increased	bound	significantly increased	increased	–	–
murine IL-17E: Murine IL-17E from R&D Systems; predominant form starting at Val 17 of GenBank NP 542767 (protein) VSLRIQEGCSHLPSCCPSKEQEPPEEWLKWSSASVSPPEPLSHTHHAESCRASKDGPLNSRAISPWSYELDRDLNRVPQDLYHARCLCPHCVSLQTGSHMDPLGNSVPLYHNQTVFYRRPCHGEEGTHRRYCLERRLYRVSLACVCVRPRVMA	significantly increased	significantly increased	bound	significantly increased	increased	significantly increased	significantly increased
